Data published in patent US6808893.

Tests used:
[1] = biological target: EAAT4, full-length glutamate transporter (rat) (UniProt O35921); experiment: cell-based or functional assay
[2] = biological target: GTRAP4-48 (glutamate transporter 4 associated protein), full-length (rat) (UniProt Q9ES67); experiment: cell-based or functional assay
Chain of GTRAP4-48 (glutamate transporter 4 associated protein), full-length (rat) (Q9ES67 whole entry): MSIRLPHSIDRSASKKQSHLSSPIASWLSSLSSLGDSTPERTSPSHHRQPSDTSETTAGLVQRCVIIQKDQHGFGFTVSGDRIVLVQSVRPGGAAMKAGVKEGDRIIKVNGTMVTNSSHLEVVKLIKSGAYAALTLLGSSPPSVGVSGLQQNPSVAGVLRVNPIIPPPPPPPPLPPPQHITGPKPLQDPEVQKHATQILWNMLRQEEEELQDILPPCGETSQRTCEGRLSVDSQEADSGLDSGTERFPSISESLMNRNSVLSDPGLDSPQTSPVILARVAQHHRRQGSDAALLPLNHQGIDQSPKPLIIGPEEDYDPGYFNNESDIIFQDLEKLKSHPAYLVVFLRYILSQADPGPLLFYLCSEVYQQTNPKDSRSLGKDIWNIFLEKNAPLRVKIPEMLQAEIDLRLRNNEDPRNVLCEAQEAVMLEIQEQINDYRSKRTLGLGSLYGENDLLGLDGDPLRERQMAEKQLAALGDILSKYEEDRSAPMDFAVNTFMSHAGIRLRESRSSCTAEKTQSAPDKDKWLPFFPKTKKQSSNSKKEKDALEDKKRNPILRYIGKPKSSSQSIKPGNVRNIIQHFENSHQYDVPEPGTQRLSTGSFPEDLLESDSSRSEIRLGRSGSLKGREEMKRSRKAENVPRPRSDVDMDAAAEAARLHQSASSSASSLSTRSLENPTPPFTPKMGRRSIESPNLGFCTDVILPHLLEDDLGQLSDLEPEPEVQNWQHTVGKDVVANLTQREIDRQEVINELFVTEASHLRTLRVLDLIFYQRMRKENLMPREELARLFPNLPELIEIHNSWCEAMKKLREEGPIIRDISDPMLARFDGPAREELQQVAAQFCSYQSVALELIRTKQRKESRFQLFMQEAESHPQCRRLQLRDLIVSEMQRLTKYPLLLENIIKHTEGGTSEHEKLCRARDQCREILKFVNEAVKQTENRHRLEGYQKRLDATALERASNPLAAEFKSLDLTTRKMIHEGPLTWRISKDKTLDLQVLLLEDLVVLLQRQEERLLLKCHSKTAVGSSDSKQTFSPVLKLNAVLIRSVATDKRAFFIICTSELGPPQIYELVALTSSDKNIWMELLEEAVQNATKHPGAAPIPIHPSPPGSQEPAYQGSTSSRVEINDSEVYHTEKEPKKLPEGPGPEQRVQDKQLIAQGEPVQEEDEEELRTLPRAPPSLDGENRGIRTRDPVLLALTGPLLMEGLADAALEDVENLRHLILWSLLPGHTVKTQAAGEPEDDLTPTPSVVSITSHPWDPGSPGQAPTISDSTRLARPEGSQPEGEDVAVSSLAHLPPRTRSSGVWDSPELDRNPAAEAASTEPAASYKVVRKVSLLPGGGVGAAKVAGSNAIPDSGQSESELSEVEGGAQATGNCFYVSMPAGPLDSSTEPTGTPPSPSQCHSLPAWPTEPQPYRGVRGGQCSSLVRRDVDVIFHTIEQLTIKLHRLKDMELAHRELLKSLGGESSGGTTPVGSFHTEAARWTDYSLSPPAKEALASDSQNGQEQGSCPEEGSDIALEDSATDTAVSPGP

Chain of EAAT4, full-length glutamate transporter (rat) (O35921 whole entry): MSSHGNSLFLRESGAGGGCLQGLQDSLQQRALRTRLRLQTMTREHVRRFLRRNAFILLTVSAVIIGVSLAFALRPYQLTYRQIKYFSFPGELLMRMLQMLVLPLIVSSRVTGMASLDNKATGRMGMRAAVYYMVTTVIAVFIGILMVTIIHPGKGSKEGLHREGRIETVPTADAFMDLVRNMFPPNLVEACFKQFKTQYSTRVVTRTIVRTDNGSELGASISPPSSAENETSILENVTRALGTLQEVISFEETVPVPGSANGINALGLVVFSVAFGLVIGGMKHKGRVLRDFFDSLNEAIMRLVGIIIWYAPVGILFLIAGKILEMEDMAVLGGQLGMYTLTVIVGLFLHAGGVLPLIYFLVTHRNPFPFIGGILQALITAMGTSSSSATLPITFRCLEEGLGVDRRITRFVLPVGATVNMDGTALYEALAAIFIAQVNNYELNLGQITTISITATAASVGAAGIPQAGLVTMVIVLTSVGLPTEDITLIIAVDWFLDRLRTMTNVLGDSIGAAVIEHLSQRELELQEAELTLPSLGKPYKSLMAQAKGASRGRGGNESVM

Row | Substance | Km of Na+-dependent L-[3H]-glutamate uptake with GTRAP41 [1] [µM] | Na+-dependent glutamate transport in HEK-rEAAT4 cells [1] [fold] | Vmax of Na+-dependent L-[3H]-glutamate uptake with GTRAP41 [1] [pmol/mg/min] | GTRAP4-48 mediated increase of EAAT4 uptake activity in HEK-rEAAT4 cells [2] [%]
1 | GTRAP4-41 (glutamate transporter 4 associated protein), full-length, Q9QWN8 2-2388 | 11 | 2 | 605 | –
2 | myc-tagged construct encoding the last 77 amino acids of EAAT4 (from UniProt O35921 485-561) | – | – | – | 25
